Numbered stars: 1 amine (or outer) side, 2 acyl side, 3 side chain; on linkers, the order of the positions; unused ones are H or OH. Square brackets hold non-standard residues; d marks the D form. Side chains are listed from the residue outwards. Ends that are not written are not given here. * marks the point of attachment. C18 diacid = O=C(O)CCCCCCCCCCCCCCCCC(=O)*; γGlu = O=C(O)[C@H](CCC(=O)[*:2])N[*:1]; AEEA = NCCOCCOCC(=O)O; Aib = CC(C)(N)C(=O)O
B1: Example 327 (peptide)
peptide: FXEGTFTSDYSIXLDKKAQXAFIEYLIEGGPSSGAPPPS
modifications: Aib2; αMeL13; K17((2-[2-(2-Amino-ethoxy)-ethoxy]-acetyl)2-(γ-Glu)-CO-(CH2)18-CO2H); Aib20; C-terminal NH2
B2: Example 332 (peptide)
peptide: YXEGTFTSDYSIXLDEKAQXAFIEYLIAGGPSSGAPPPS
modifications: Aib2; αMeL13; K17((2-[2-(2-Amino-ethoxy)-ethoxy]-acetyl)2-(γ-Glu)-CO-(CH2)18-CO2H); Aib20; C-terminal NH2
B3: Example 333 (peptide)
peptide: YXEGTFTSDYSIXLDKKAQXEFIEYLIEGGPSSGAPPPS
modifications: Aib2; αMeL13; K17((2-[2-(2-Amino-ethoxy)-ethoxy]-acetyl)2-(γ-Glu)-CO-(CH2)18-CO2H); Aib20; C-terminal NH2
B4: Example 337 (peptide)
peptide: FXEGTFTSDYSIXLDKKAQXAFIEYLIAGGPSSGAPPPS
modifications: Aib2; αMeL13; K17((2-[2-(2-Amino-ethoxy)-ethoxy]-acetyl)2-(γ-Glu)-CO-(CH2)18-CO2H); Aib20; C-terminal NH2
B5: Example 339 (peptide)
peptide: YXEGTFTSDYSIXLDKKAQXEFIEYLIAGGPSSGAPPPS
modifications: Aib2; αMeL13; K17((2-[2-(2-Amino-ethoxy)-ethoxy]-acetyl)-(γ-Glu)-CO-(CH2)18-CO2H); Aib20; C-terminal NH2
B6: Example 340 (peptide)
peptide: XXEGTFTSDYSIXLDKKAQXAFIEYLIAGGPSSGAPPPS
modifications: D-Tyr1; Aib2; αMeL13; K17((2-[2-(2-Amino-ethoxy)-ethoxy]-acetyl)2-(γ-Glu)-CO-(CH2)18-CO2H); Aib20; C-terminal NH2
B7: Example 290 (peptide)
peptide: XXEGTFTSDYSIXLDKKAQXEFIEYLIAGGPSSGAPPPS
modifications: D-Tyr1; Aib2; αMeL13; K17((2-[2-(2-Amino-ethoxy)-ethoxy]-acetyl)2-(γ-Glu)-CO-(CH2)18-CO2H); Aib20; C-terminal NH2
B8: Example 334 (peptide)
peptide: XXEGTFTSDYSIXLDKKAQXAFIEYLIEGGPSSGAPPPS
modifications: D-Tyr1; Aib2; αMeL13; K17((2-[2-(2-Amino-ethoxy)-ethoxy]-acetyl)2-(γ-Glu)-CO-(CH2)18-CO2H); Aib20; C-terminal NH2
B9: Example 341 (peptide)
peptide: XXEGTFTSDYSIXLDEKAQXAFIEYLIAGGPSSGAPPPS
modifications: D-Tyr1; Aib2; αMeL13; K17((2-[2-(2-Amino-ethoxy)-ethoxy]-acetyl)2-(γ-Glu)-CO-(CH2)18-CO2H); Aib20; C-terminal NH2
B10: Example 292 (peptide)
peptide: XXEGTFTSDYSIXLDKKAQXEFIEXLIAGGPSSGAPPPS
modifications: D-Tyr1; Aib2; αMeL13; K17((2-[2-(2-Amino-ethoxy)-ethoxy]-acetyl)2-(γ-Glu)-CO-(CH2)18-CO2H); Aib20; αMeY25; C-terminal NH2
B11: Example 293 (peptide)
peptide: XXEGTFTSDYSIXLDXKAQXEFIEXLIAGGPSSGAPPPS
modifications: D-Tyr1; Aib2; αMeL13; Orn16; K17((2-[2-(2-Amino-ethoxy)-ethoxy]-acetyl)2-(γ-Glu)-CO-(CH2)18-CO2H); Aib20; αMeY25; C-terminal NH2
B12: Example 294 (peptide)
peptide: Y[Aib]EGTFTSDYSILLDKK([AEEA-AEEA-γGlu-C18 diacid])AQQAFIEYLIEGG-NH2
modifications: N-terminus assumed
SMILES: CC[C@H](C)[C@H](NC(=O)[C@H](CC(C)C)NC(=O)[C@H](Cc1ccc(O)cc1)NC(=O)[C@H](CCC(=O)O)NC(=O)[C@@H](NC(=O)[C@H](Cc1ccccc1)NC(=O)[C@H](C)NC(=O)[C@H](CCC(N)=O)NC(=O)[C@H](CCC(N)=O)NC(=O)[C@H](C)NC(=O)[C@H](CCCCNC(=O)COCCOCCNC(=O)COCCOCCNC(=O)CC[C@H](NC(=O)CCCCCCCCCCCCCCCCC(=O)O)C(=O)O)NC(=O)[C@H](CCCCN)NC(=O)[C@H](CC(=O)O)NC(=O)[C@H](CC(C)C)NC(=O)[C@H](CC(C)C)NC(=O)[C@@H](NC(=O)[C@H](CO)NC(=O)[C@H](Cc1ccc(O)cc1)NC(=O)[C@H](CC(=O)O)NC(=O)[C@H](CO)NC(=O)[C@@H](NC(=O)[C@H](Cc1ccccc1)NC(=O)[C@@H](NC(=O)CNC(=O)[C@H](CCC(=O)O)NC(=O)C(C)(C)NC(=O)[C@@H](N)Cc1ccc(O)cc1)[C@@H](C)O)[C@@H](C)O)[C@@H](C)CC)[C@@H](C)CC)C(=O)N[C@@H](CCC(=O)O)C(=O)NCC(=O)NCC(N)=O
B13: Example 300 (peptide)
peptide: YXEGTFTSDYSIXLDKKAQXAFIEYLIEGGPSSG
modifications: Aib2; αMeL13; K17((2-[2-(2-Amino-ethoxy)-ethoxy]-acetyl)2-(γ-Glu)-CO-(CH2)16-CO2H); Aib20; C-terminal NH2
B14: Example 303 (peptide)
peptide: YXEGTFTSDYSIXLDEKAQXAFIEYLIEGGPSSG
modifications: Aib2; αMeL13; K17((2-[2-(2-Amino-ethoxy)-ethoxy]-acetyl)2-(γ-Glu)-CO-(CH2)16-CO2H); Aib20; C-terminal NH2
B15: Example 305 (peptide)
peptide: YXEGTFTSDYSIXLDKKAQXAFIEYLIAGGPSSG
modifications: Aib2; αMeL13; K17((2-[2-(2-Amino-ethoxy)-ethoxy]-acetyl)2-(γ-Glu)-CO-(CH2)16-CO2H); Aib20; C-terminal NH2

Experiments:
human glucagon receptor = target: T1, human glucagon receptor (human, UniProt P47871 26-477); test: [125I]-Gcg competition SPA, hGcgR membranes
T1 construct: whole, on cells; also called hGcgR; GcgR

human GLP-1 receptor = target: T2, human GLP-1 receptor (human, UniProt P43220 24-463); test: [125I]-GLP-1 competition SPA, hGLP-1R membranes
T2 construct: whole, on cells; also called hGLP-1R; hGLP1R
Method in brief: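 Kᵢ values are geometric means (SEM) over replicates run on separate days, derived from IC₅₀ of four-parameter curve fits. Buffer: HEPES 25 mM pH 7.4 with CaCl₂ 2.5 mM, MgCl₂ 1 mM, bacitracin 0.1%, TWEEN-20 0.003%, EDTA-free protease inhibitors.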

human GIP receptor = target: T3, human GIP receptor (human, UniProt P48546 22-466); test: [125I]-GIP competition SPA, hGIPR membranes
T3 construct: whole, on cells; also called hGIPR; hGIP-R
T3 sequence (looked up): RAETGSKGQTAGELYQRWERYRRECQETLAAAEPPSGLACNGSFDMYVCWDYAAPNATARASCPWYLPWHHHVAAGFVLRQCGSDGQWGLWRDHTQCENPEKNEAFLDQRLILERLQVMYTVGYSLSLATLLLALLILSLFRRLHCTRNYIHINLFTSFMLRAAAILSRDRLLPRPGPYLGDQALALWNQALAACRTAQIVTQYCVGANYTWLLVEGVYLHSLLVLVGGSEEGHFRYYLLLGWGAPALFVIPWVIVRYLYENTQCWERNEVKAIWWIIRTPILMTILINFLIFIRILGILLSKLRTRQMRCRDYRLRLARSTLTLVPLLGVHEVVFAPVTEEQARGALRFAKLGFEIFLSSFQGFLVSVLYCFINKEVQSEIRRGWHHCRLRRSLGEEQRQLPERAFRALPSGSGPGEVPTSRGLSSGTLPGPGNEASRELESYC

T1 sequence (P47871 26-477): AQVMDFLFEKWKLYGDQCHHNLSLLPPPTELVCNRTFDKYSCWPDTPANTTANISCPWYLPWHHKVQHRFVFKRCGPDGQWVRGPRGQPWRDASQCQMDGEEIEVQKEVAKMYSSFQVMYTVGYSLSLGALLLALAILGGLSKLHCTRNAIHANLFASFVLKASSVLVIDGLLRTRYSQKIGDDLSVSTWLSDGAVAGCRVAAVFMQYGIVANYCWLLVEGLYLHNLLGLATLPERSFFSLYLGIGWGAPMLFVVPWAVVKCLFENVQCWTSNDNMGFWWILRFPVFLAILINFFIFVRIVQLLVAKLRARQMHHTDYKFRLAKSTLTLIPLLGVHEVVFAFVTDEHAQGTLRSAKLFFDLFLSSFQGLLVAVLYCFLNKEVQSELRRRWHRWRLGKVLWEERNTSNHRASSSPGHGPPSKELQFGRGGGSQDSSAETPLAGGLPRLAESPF

Binder	Ki (human glucagon receptor) [nM]	Ki (human GLP-1 receptor) [nM]	Ki (human GIP receptor) [nM]
B1	114	2.1	0.0667
B2	397	7.87	0.0497
B3	578	4.25	0.0634
B4	335	1.61	0.0363
B5	873	2.69	0.0388
B6	250	2.08	0.0507
B7	308	2.44	0.0617
B8	192	2.17	0.0646
B9	39.7	6.49	0.0559
B10	595	1.19	0.0547
B11	668	1.64	0.0775
B12	629	2.92	0.205
B13	251	2.13	0.0504
B14	502	3.69	0.058
B15	352	0.83	0.025

From patent US20200024322A1 (Eli Lilly, published 2020)
